The test system of data set [1] is breast cancer cell MDA-MB-231. Kind of data set: MTT assay, proliferation of breast cancer cell MDA-MB-231. It is filed as cell-based. The method, then:
The MTT assay was used to detect the inhibitory effect of the integrin blocker fusion protein obtained in Example 1 on the proliferation of various tumor cells, including melanoma cell B16F10, gastric cancer cell MGC-803, lung cancer cell A549, liver cancer cell Hep-G2, breast cancer cell MDA-MB-231, colon cancer cell HCT-116, human glioma U87, and cervical cancer cell Hela.
The tumor cells were cultured in a 5% CO2 incubator at 37° C. to a density of 90% or more, and collected by trypsinization. The cells were resuspended in the culture liquid and counted under a microscope. The cell concentration was adjusted to 3.0×10^4 cells/mL. The cell suspension was inoculated into a 96-well plate at 100 μL per well and cultured overnight in a 5% CO2 incubator at 37° C. […] After the cells were fully adhered, each dilution was added to a 96-well plate at 100 μL per well, respectively. […] 20 μL of 5 mg/mL MTT was added to each well of a 96-well plate, and incubation was continued for 4 hours. The medium was aspirated and 100 μL of DMSO per well were added to dissolve. The absorbance was measured at 570 nm with a microplate reader with a reference wavelength of 630 nm, and the proliferation inhibition (PI) was calculated. The formula is as follows: […]
where Ntest is the OD value of the test group and Ncontrol is the OD value of the blank control group.
The test was repeated 5 times independently. The results obtained from the test were calculated as mean±SD, and statistical t-test was performed. P<0.05 was considered as a significant difference, and P<0.01 was considered as an extremely significant difference.

For data set [2], the system named is corneal neovascularization in mice. In words: Corneal neovascularization induced by alkali burn in BALB/c mice (MVD, CD31). The data set is classed as in vivo. The source says:
15 healthy male BALB/c mice with weight of 20-25 g were examined under a slit lamp microscope for the anterior segment of both eyes and the appendage to exclude ocular lesions. The eyes were given 0.3% loxacin eye drops 1 day before the preparation of alkali burn model, twice a day. After the mice were anesthetized by intraperitoneal injection of 1.8% Avertin, single-layer filter paper with a diameter of 2 mm was clamped with tweezers, and immersed in a 1 mol/L sodium hydroxide solution to reach a saturated state, and the excess liquid was removed. […]
15 mice were randomly divided into […], with 5 rats in each group. […] On day 14 after alkali burn, the neovascularization of the corneal in each group was photographed and recorded under the slit lamp microscope for photographing anterior segment of the eye. […] The blood was washed with physiological saline, and the eyeballs were fixed in 4% paraformaldehyde for 1.5 h, dehydrated in PBS containing 30% sucrose overnight, embedded in an OCT tissue freezing medium, stored in a refrigerator at −80° C., subjected to cryosection at […] and detected by immunohistochemistry for CD31 expression.
Microvessel density (MVD) is an indicator for evaluating angiogenesis. […] The number of new blood vessels in the entire section was counted under a 10×20 microscope. […]

B1: Protein II: IgG2-Fc linked to antiangiogenesis polypeptide EDSM-Y via a flexible linker; SEQ ID NO: 17 (protein)
chain: ERKCCVECPPCPAPPVAGPSVFLFPPKPKDTLMISRTPEVTCVVVDVSHEDPEVQFNWYVDGVEVHNAKTKPREEQFNSTFRVVSVLTVVHQDWLNGKEYKCKVSNKGLPAPIEKTISKTKGQPREPQVYTLPPSREEMTKNQVSLTCLVKGFYPSDISVEWESNGQPENNYKTTPPMLDSDGSFFLYSKLTVDKSRWQQGNVFSCSVMHEALHNHYTQKSLSLSPGKGGGGSGGGGSGGGGSFQPVLHLVALNSPLSGGMRGIRGADFQCFQQARAVGLAGTFRAGGGGRGD
Turning to B1, the “A570 nm/A630 nm” value turned out to be 0.9859 ± 0.0397 in data set [1] (dose 1 μg/mL); 0.9552 ± 0.0419 in data set [1] (dose 2 μg/mL); 0.9150 ± 0.0283 in data set [1] (dose 4 μg/mL); 0.8806 ± 0.0345 in data set [1] (dose 8 μg/mL); 0.8110 ± 0.0298 in data set [1] (dose 16 μg/mL); 0.7546 ± 0.0274 in data set [1] (dose 32 μg/mL). Moreover, the “A570 nm/A630 nm” value in data set [1] (dose 64 μg/mL) turned out to be 0.6945 ± 0.0326; in data set [1] (dose 128 μg/mL) it was 0.6589 ± 0.0287; in data set [1] (dose 256 μg/mL), 0.6012 ± 0.0311. For the same molecule, the “PI (%)” value in data set [1] (dose 1 μg/mL) came to 5.09%; in data set [1] (dose 2 μg/mL), 8.05%; in data set [1] (dose 4 μg/mL), 11.92%; in data set [1] (dose 8 μg/mL), 15.23%; in data set [1] (dose 16 μg/mL) it was 21.93%; in data set [1] (dose 32 μg/mL), 27.36%. Besides, the “PI (%)” value in data set [1] (dose 64 μg/mL) is 33.14%; in data set [1] (dose 128 μg/mL), 36.57%; in data set [1] (dose 256 μg/mL), 42.13%. Also, the “number of CD31-positive new blood vessels” value in data set [2] (compared with the control group) was “significantly reduced”. This molecule showed an MVD in data set [2] (dose 64 μg, intravitreal injection, day 14 after alkali burn) of 24.64 ± 4.24.
